B1: ZER1 (parent)
chain: FDGPEAWGVCEPQREEVEERMWAA

Variants of: B1
Assay: protein stability index of a GFP-peptide fusion (GPS, HEK-293T) (PSI 1-6); higher = more stable
Details: c terminus: a fixed tail appended
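Also: lentivirally expressed fusions sorted by FACS into six bins by GFP to DsRed ratio, PSI derived from sequencing read proportions per bin multiplied by bin number.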

Variant | protein stability index
FDGPEAWGWCEPQREEVEERMWAA [V9W] | 3.22
FDGPEAWGYCEPQREEVEERMWAA [V9Y] | 2.48
FDGPEAWGDCEPQREEVEERMWAA [V9D] | 4.92
FDGPEAWGMCEPQREEVEERMWAA [V9M] | 2.63
FDGPEAWGKCEPQREEVEERMWAA [V9K] | 2.59
FDGPEAWGHCEPQREEVEERMWAA [V9H] | 3.18
FDGPEAWGQCEPQREEVEERMWAA [V9Q] | 3.05
FDGPEAWGSCEPQREEVEERMWAA [V9S] | 4.12
FDGPEAWGECEPQREEVEERMWAA [V9E] | 4.03
FDGPEAWGCCEPQREEVEERMWAA [V9C] | 2.03
FDGPEAWGGCEPQREEVEERMWAA [V9G] | 3.25
FDGPEAWGFCEPQREEVEERMWAA [V9F] | 2.94
FDGPEAWGTCEPQREEVEERMWAA [V9T] | 3.15
FDGPEAWGICEPQREEVEERMWAA [V9I] | 2.09
FDGPEAWGNCEPQREEVEERMWAA [V9N] | 3.35
FDGPEAWGRCEPQREEVEERMWAA [V9R] | 2.5
FDGPEAWGACEPQREEVEERMWAA [V9A] | 3.21
FDGPEAWGPCEPQREEVEERMWAA [V9P] | 3.08
FDGPESWGVCEPQREEVEERMWAA [A6S] | 3.53
FDGPENWGVCEPQREEVEERMWAA [A6N] | 3.6
FDGPEWWGVCEPQREEVEERMWAA [A6W] | 1.63
FDGPETWGVCEPQREEVEERMWAA [A6T] | 2.48
FDGPERWGVCEPQREEVEERMWAA [A6R] | 3.35
FDGPEVWGVCEPQREEVEERMWAA [A6V] | 2.76

Variant | protein stability index
FDGPEQWGVCEPQREEVEERMWAA [A6Q] | 3.59
FDGPEPWGVCEPQREEVEERMWAA [A6P] | 3.77
FDGPEYWGVCEPQREEVEERMWAA [A6Y] | 1.82
FDGPEAWGVCDPQREEVEERMWAA [E11D] | 2.67
FDGPEAWGVCLPQREEVEERMWAA [E11L] | 1.85
FDGPEAWGVCVPQREEVEERMWAA [E11V] | 1.96
FDGPEAWGVCCPQREEVEERMWAA [E11C] | 2.15
FDGPEAWGVCPPQREEVEERMWAA [E11P] | 2.64
FDGPEAWGVCWPQREEVEERMWAA [E11W] | 1.81
FDGPEAWGVCHPQREEVEERMWAA [E11H] | 2.55
FDGPEAWGVCAPQREEVEERMWAA [E11A] | 1.87
FDGPEAWGVCIPQREEVEERMWAA [E11I] | 3.01
FDGPEAWGVCTPQREEVEERMWAA [E11T] | 2.58
FDGPEAWGVCFPQREEVEERMWAA [E11F] | 1.89
FDGPEAWGVCMPQREEVEERMWAA [E11M] | 3.24
FDGPEAWGVCSPQREEVEERMWAA [E11S] | 2.73
FDGPEAWGVCNPQREEVEERMWAA [E11N] | 1.83
FDGPEAWGVCYPQREEVEERMWAA [E11Y] | 1.87
FDGPEAWGVCRPQREEVEERMWAA [E11R] | 1.93
FDGPEAWGVCKPQREEVEERMWAA [E11K] | 2.12
FDGPEAWGVCQPQREEVEERMWAA [E11Q] | 1.9
FDGPEAWKVCEPQREEVEERMWAA [G8K] | 2.25
FDGPEAWHVCEPQREEVEERMWAA [G8H] | 2.33
FDGPEAWLVCEPQREEVEERMWAA [G8L] | 3.64

Variant | protein stability index
FDGPEAWAVCEPQREEVEERMWAA [G8A] | 1.96
FDGPEAWCVCEPQREEVEERMWAA [G8C] | 2.33
FDGPEAWFVCEPQREEVEERMWAA [G8F] | 1.55
FDGPEAWEVCEPQREEVEERMWAA [G8E] | 4.19
FDGPEAWVVCEPQREEVEERMWAA [G8V] | 1.6
FDGPEAWMVCEPQREEVEERMWAA [G8M] | 1.79
FDGPEAWNVCEPQREEVEERMWAA [G8N] | 2.62
FDGPEAWYVCEPQREEVEERMWAA [G8Y] | 3.39
FDGPEAWRVCEPQREEVEERMWAA [G8R] | 2.42
FDGPEAWDVCEPQREEVEERMWAA [G8D] | 3.75
FDGPEAWSVCEPQREEVEERMWAA [G8S] | 1.95
FDGPEAWPVCEPQREEVEERMWAA [G8P] | 4.17
FDGPEAWIVCEPQREEVEERMWAA [G8I] | 2.25
FDGPEAWQVCEPQREEVEERMWAA [G8Q] | 2.74
FDGPEAWGVQEPQREEVEERMWAA [C10Q] | 3.26
FDGPEAWGVLEPQREEVEERMWAA [C10L] | 3.15
FDGPEAWGVNEPQREEVEERMWAA [C10N] | 3.26
FDGPEAWGVAEPQREEVEERMWAA [C10A] | 3.02
FDGPEAWGVREPQREEVEERMWAA [C10R] | 2.6
FDGPEAWGVYEPQREEVEERMWAA [C10Y] | 2.86
FDGPEAWGVDEPQREEVEERMWAA [C10D] | 4.42
FDGPEAWGVFEPQREEVEERMWAA [C10F] | 3.21
FDGPEAWGVHEPQREEVEERMWAA [C10H] | 3.64
FDGPEAWGVGEPQREEVEERMWAA [C10G] | 4.03

Variant | protein stability index
FDGPEAWGVSEPQREEVEERMWAA [C10S] | 2.66
FDGPEAWGVPEPQREEVEERMWAA [C10P] | 3.64
FDGPEAWGVEEPQREEVEERMWAA [C10E] | 3.93
FDGPEAWGVWEPQREEVEERMWAA [C10W] | 2.6
FDGPEAWGVMEPQREEVEERMWAA [C10M] | 3.13
FDGPEAWGVVEPQREEVEERMWAA [C10V] | 2.55
FDGPEAWGVKEPQREEVEERMWAA [C10K] | 3.48
FDGPEAWGVTEPQREEVEERMWAA [C10T] | 3.3
FDGPEAWGVIEPQREEVEERMWAA [C10I] | 2.86
FDGPEAWGVCEPQRQEVEERMWAA [E15Q] | 2.5
FDGPEAWGVCEPQRCEVEERMWAA [E15C] | 3.02
FDGPEAWGVCEPQRNEVEERMWAA [E15N] | 2.31
FDGPEAWGVCEPQRPEVEERMWAA [E15P] | 1.46
FDGPEAWGVCEPQRSEVEERMWAA [E15S] | 2.13
FDGPEAWGVCEPQRVEVEERMWAA [E15V] | 2.63
FDGPEAWGVCEPQRGEVEERMWAA [E15G] | 2.19
FDGPEAWGVCEPQRFEVEERMWAA [E15F] | 1.56
FDGPEAWGVCEPQRYEVEERMWAA [E15Y] | 2.32
FDGPEAWGVCEPQRWEVEERMWAA [E15W] | 1.52
FDGPEAWGVCEPQRDEVEERMWAA [E15D] | 2.43
FDGPEAWGVCEPQRAEVEERMWAA [E15A] | 2.45
FDGPEAWGVCEPQRREVEERMWAA [E15R] | 2.79

From the supplement of paper PMC10567573
